Here are results for 20 substances from patent US20120283172A1.

Experiment [1] addresses human growth hormone receptor on IM-9 cells (human) (UniProt P10912).
For experiment [2] the target is unchanged. As to the kind of experiment: cell-based or functional assay.
Experiment [3] has the same target. This is another data set of the same source.

Read-outs that look alike come from different tables or passages of the source.

UniProt P10912, sequence (P10912 19-638): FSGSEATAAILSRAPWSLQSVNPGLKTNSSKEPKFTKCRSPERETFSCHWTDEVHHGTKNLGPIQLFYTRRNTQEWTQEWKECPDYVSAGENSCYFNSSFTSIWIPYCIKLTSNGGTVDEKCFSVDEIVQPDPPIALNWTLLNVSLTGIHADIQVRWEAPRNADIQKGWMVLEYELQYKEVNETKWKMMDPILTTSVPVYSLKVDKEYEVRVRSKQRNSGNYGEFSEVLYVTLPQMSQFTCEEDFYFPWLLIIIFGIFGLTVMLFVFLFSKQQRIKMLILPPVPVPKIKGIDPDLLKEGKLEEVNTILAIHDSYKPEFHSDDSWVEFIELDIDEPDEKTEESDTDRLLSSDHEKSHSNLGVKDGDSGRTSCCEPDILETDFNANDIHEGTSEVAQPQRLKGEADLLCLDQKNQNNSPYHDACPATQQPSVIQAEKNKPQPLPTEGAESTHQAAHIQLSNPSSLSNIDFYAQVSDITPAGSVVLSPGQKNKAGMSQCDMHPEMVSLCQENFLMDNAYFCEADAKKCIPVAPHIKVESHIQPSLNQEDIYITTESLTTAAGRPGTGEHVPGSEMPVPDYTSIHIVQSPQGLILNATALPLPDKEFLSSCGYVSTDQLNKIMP

(His)F92-pAF-30K (ligand) gave an EC50, STAT5 phosphorylation in IM-9 cells (intracellular phospho-STAT5 staining, FACS, MFI PE) in experiment [1] of 4.1 nM.

The substance (His)F92pAF-5K (ligand) showed an EC50, STAT5 phosphorylation in IM-9 cells (intracellular phospho-STAT5 staining, FACS, MFI PE) in experiment [1] of 1.5 nM.

As to (His)F92pAF-20K (ligand), the EC50, STAT5 phosphorylation in IM-9 cells (intracellular phospho-STAT5 staining, FACS, MFI PE) in experiment [1] turned out to be 4.6 nM.

“His-tagged hGH Y143pAF (from UniProt P01241 27-217) (ligand)” gave an EC50 of STAT5 phosphorylation in IM-9 cells (MFI by intracellular phospho-STAT5 staining) in experiment [2] of 0.8 nM.

In turn, “hGH A155pAF (from UniProt P01241 27-217) (ligand)” returned an EC50 of STAT5 phosphorylation in IM-9 cells (MFI by intracellular phospho-STAT5 staining) in experiment [2] of 1.3 nM.

In experiment [2], “hGH E88pAF (from UniProt P01241 27-217) (ligand)” registered an EC50 of STAT5 phosphorylation in IM-9 cells (MFI by intracellular phospho-STAT5 staining) of 0.9 nM.

With “hGH F92pAF (from UniProt P01241 27-217) (ligand)”, the EC50, STAT5 phosphorylation in IM-9 cells (intracellular phospho-STAT5 staining, FACS, MFI PE) amounted to 0.9 nM in experiment [1] and 1.1 nM in experiment [3]. In experiment [2], this substance registered an EC50 of STAT5 phosphorylation in IM-9 cells (MFI by intracellular phospho-STAT5 staining) of 0.8 nM.

In experiment [2], “hGH F139pAF (from UniProt P01241 27-217) (ligand)” came in with an EC50 of STAT5 phosphorylation in IM-9 cells (MFI by intracellular phospho-STAT5 staining) of 3.3 nM.

Substance “hGH G131pAF (from UniProt P01241 27-217) (ligand)” showed an EC50 of STAT5 phosphorylation in IM-9 cells (MFI by intracellular phospho-STAT5 staining) in experiment [2] of 0.8 nM.

“hGH G136pAF (from UniProt P01241 27-217) (ligand)” displayed an EC50 of STAT5 phosphorylation in IM-9 cells (MFI by intracellular phospho-STAT5 staining) in experiment [2] of 1.4 nM.

Substance “hGH K140pAF (from UniProt P01241 27-217) (ligand)” returned an EC50 of STAT5 phosphorylation in IM-9 cells (MFI by intracellular phospho-STAT5 staining) in experiment [2] of 2.7 nM.

In experiment [2], “hGH N99pAF (from UniProt P01241 27-217) (ligand)” showed an EC50 of STAT5 phosphorylation in IM-9 cells (MFI by intracellular phospho-STAT5 staining) of 8.5 nM.

Take “hGH P133pAF (from UniProt P01241 27-217) (ligand)”: the EC50 of STAT5 phosphorylation in IM-9 cells (MFI by intracellular phospho-STAT5 staining) in experiment [2] worked out at 1 nM.

In experiment [2], “hGH Q91pAF (from UniProt P01241 27-217) (ligand)” gave an EC50 of STAT5 phosphorylation in IM-9 cells (MFI by intracellular phospho-STAT5 staining) of 2 nM.

In the case of “hGH R134pAF (from UniProt P01241 27-217) (ligand)”, the EC50 of STAT5 phosphorylation in IM-9 cells (MFI by intracellular phospho-STAT5 staining) in experiment [2] worked out at 0.9 nM.

In experiment [2], “hGH S95pAF (from UniProt P01241 27-217) (ligand)” returned an EC50 of STAT5 phosphorylation in IM-9 cells (MFI by intracellular phospho-STAT5 staining) of 16.7 nM.

The substance “hGH T135pAF (from UniProt P01241 27-217) (ligand)” yielded an EC50 of STAT5 phosphorylation in IM-9 cells (MFI by intracellular phospho-STAT5 staining) in experiment [2] of 0.9 nM.

As for “hGH Y103pAF (from UniProt P01241 27-217) (ligand)”, in experiment [2], the EC50 of STAT5 phosphorylation in IM-9 cells (MFI by intracellular phospho-STAT5 staining) came out at 130000 nM.

With “hGH Y111pAF (from UniProt P01241 27-217) (ligand)”, the EC50 of STAT5 phosphorylation in IM-9 cells (MFI by intracellular phospho-STAT5 staining) in experiment [2] is 1 nM.

As for “rat growth hormone, wild type (from UniProt P01244 27-216) (ligand)”, the EC50 of STAT5 phosphorylation in IM-9 cells (MFI by intracellular phospho-STAT5 staining) in experiment [2] was more than 200000 nM.
